Reference: US20170016892A1, “LOCALIZED SURFACE PLASMON RESONANCE SENSING OF HUMAN PERFORMANCE BIOMARKERS USING SHORT PEPTIDE RECOGNITION ELEMENTS ON OPTICALLY ACTIVE METAL NANOSTRUCTURES” (Government of the United States as Represented by the …, priority 2015, published 2017)
Where no end group is shown, it is not given here.

How the values were obtained:
[1] = thermal and shelf-life stability of BPDs by measured LSPR shift; assay type: physicochemical; settings: incubated at 4° C. and at 60° C., each for 48 hrs
Method: To compare stability of both the peptide- and antibody-AuNR BPDs, each BPD type was incubated at 4° C. and at 60° C., each for 48 hrs. […] This reduction is believed to be due to antibody denaturation and lose molecular recognition at elevated temperatures.

troponin = troponin (Homo sapiens, UniProt P19429); test: detection of troponin in artificial eccrine sweat with peptide-based BPDs (LSPR shift); assay type: binding
Method: (§1) Peptide-based BPDs prepared in accordance with embodiments of the present invention were used in detection of troponin in complex physiological fluids, including, for example, human plasma and sweat. To reduce nonspecific binding, the BPDs were first exposed to 1% HAS to block non-specific sites. […] The limit of detection of cTnI in human plasma was 353 pg/mL, which was within physiological relevant concentration range of troponin in human plasma (0.010 ng/mL to 10 ng/mL). […] Moreover, detection of troponin in artificial eccrine sweat at physiologically-relevant concentration was also accomplished (see, FIG. 16B).

cTnI [2] = molecular target: T1, cTnI (Homo sapiens, UniProt P19429); test: LSPR shift of BPDs on exposure to troponin in buffer; assay type: binding
Method: To probe the sensing capability of the BPDs, each BPD was exposed to troponin 1 (3.53 μg/mL in 0.1 M TBS, pH 8.0). […] The higher sensitivity of peptide-AuNR as compared to the sensitivity of the antibody-AuNR was believed to be due to differences in the thickness of the peptide and antibody adsorbate layer.
To probe the limit of detection in both the peptide- and antibody-AuNR BPDs, each BPD was exposed to varying concentrations of cTnI.

cTnI [3] = molecular target: T1, cTnI; test: detection of troponin in human plasma with peptide-based BPDs (LSPR shift); assay type: binding
Method: as §1

[4] = molecular target: human serum albumin (HSA) (Homo sapiens, UniProt P02768); test: selectivity of BPDs with human serum albumin as interfering protein (LSPR shift); assay type: binding; settings: high concentrations of HSA
Excerpt: To compare selectivity of both the peptide- and antibody-AuNR BPDs towards cTnI, human serum albumin (“HSA”) was used as an interfering protein.

cTnI [5] = molecular target: T1, cTnI; test: binding affinity of phage-display-identified peptide to cTnI; settings: peptide identified from a phage display peptide library
Excerpt: Human troponin I binding peptide (Seq. ID No. 1), identified from a phage display peptide library, with nanomolar (nM) binding affinity to cTnI. Conjugation of the peptide to AuNR was achieved by introducing a cysteine resident at the C-terminus of the peptide (Seq. ID No. 2), to facilitate binding via an Au—S linkage.

cardiac troponin I = molecular target: T2, cardiac troponin I (human, UniProt P19429 2-210, limits assumed); test: LSPR shift after troponin binding, peptide-AuNR against anti-cTnI-AuNR as reference
T2 construct: It was used in 0.1 M TBS pH 8.0, and spiked in human plasma and artificial eccrine sweat; also called cTnI; troponin 1
T2 sequence (P19429 2-210 limits assumed): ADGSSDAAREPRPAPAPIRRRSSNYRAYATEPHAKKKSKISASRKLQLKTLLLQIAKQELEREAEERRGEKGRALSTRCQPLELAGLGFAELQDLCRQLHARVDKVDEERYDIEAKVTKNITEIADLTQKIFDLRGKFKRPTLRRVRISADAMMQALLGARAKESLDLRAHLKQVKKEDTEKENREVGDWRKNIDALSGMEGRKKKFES

T1 sequence (P19429 whole entry): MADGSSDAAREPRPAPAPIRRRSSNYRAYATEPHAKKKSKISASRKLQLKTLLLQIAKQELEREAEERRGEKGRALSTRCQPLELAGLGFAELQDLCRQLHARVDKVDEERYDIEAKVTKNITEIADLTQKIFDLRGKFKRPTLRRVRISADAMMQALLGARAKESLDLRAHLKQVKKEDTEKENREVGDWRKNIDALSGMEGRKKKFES
Chain of troponin (P19429 whole entry): as above

## peptide-AuNR: Troponin I binding peptide with C-terminal cysteine (Seq. ID No. 2) conjugated to gold nanorods via Au—S linkage, adsorbed on filter paper (FYSHSFHENWPSC; not fully specified (residue 13); also: conjugated to gold nanorods via Au–S bond of C-terminal Cys)
[1]
  stability (measured LSPR shift after incubation): remarkable thermal and temporal stability
troponin
  LSPR shift with increased troponin concentration: monotonic increase
  detection of troponin at physiologically-relevant concentration: accomplished
cTnI [2]; troponin 1 3.53 μg/mL in 0.1 M TBS, pH 8.0
  LSPR red shift on exposure to troponin: 12.3 nm
cTnI [2]; varying concentrations of cTnI
  limit of detection of cTnI: about 35.3 pg/mL
cTnI [3]
  LSPR shift with increased troponin concentration: monotonic increase
cTnI [3]; BPDs first blocked with 1% HAS
  limit of detection of cTnI in human plasma: 353 pg/mL
[4]
  LSPR shift upon exposure to HSA: small LSPR shifts

## Human troponin I binding peptide: Human troponin I binding peptide (Seq. ID No. 1), identified from a phage display peptide library (FYSHSFHENWPS)
cTnI [5]
  binding affinity to cTnI: nanomolar

B1: Human troponin I binding peptide with a cysteine residue introduced at the C-terminus (Seq. ID No. 2), conjugated to gold nanorods (AuNR) (peptide)
peptide: FYSHSFHENWPSC(AuNR)
notes: ID No. 1 is the parent phage-display peptide; ID No. 2 is the same peptide with an added C-terminal Cys, and it is the form on the AuNRs in the assays; also called peptide-AuNR
Cardiac troponin I
  LSPR shift relative to antibodies as recognition elements: ~100 % higher
